Target: -
Assay: kinetic binding (Ka/Kdis fit)

Kd: 45.9 nM
B1: Ch-15A7.5 (antibody, V domains shown)
VH: EVKLVESGGGLVQPGGSRKLSCAASGFTFSNYGMAWVRQAPGKGPEWVAFISNLAYGINYADTVTGRFTISRENAKNTLYLEMRSLRSEDTAMYYCARGARATGWFAYWGQGTLVTVSA
VL: DIVMTQSQKFMSTSIGDRVSVTCKASQNVDTHVAWYQEKPGQSPKALIYSASYRYSGVPDRFTGSGSGTDFTLTISNVQSEDLADYFCQQYNSYPLTFGGGTKLEIK

Source: patent US20250018053A1 (published 2025)
